Experimental data published in patent US20150004155A1 (AIMM THERAPEUTICS B V, published 2015).

T1: purified recombinant RSV-Gb protein (Sino Biologics) (Respiratory Syncytial Virus subtype B, …, UniProt O36633 67-299)
T1 sequence: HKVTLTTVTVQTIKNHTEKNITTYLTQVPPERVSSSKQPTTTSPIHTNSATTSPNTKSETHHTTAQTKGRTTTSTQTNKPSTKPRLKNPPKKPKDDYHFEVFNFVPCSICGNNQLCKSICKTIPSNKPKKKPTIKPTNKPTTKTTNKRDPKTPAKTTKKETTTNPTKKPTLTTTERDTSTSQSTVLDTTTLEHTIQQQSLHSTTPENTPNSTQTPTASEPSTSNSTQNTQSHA

T2: purified recombinant RSV-Ga protein (Sino Biologics) (Respiratory Syncytial Virus subtype A, …, UniProt P03423 64-298)
T2 sequence: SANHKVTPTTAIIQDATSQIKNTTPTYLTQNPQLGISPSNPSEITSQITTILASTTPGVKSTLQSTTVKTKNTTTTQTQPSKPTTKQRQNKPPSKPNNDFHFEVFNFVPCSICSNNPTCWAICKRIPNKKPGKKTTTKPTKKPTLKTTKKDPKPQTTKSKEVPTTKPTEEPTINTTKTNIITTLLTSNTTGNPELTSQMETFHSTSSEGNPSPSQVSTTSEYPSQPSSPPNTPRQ

T3: RSV G protein in denatured and boiled supernatant of RSV A2 infected HEp2 cells (western blot) (Respiratory Syncytial Virus subtype A, …, UniProt P03423 66-298)
T3 sequence: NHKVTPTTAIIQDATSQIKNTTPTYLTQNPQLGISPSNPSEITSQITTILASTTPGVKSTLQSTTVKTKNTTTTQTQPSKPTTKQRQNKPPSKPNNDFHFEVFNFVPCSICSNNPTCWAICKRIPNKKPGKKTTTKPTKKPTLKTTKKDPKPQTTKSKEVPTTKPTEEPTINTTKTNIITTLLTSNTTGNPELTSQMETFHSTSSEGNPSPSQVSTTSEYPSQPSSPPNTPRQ

T4: RSV G protein of RSV A2 (native, on RSV A2 infected HEp2 cells / virus) (Respiratory Syncytial Virus subtype A, …, UniProt P03423 1-298)
T4 sequence: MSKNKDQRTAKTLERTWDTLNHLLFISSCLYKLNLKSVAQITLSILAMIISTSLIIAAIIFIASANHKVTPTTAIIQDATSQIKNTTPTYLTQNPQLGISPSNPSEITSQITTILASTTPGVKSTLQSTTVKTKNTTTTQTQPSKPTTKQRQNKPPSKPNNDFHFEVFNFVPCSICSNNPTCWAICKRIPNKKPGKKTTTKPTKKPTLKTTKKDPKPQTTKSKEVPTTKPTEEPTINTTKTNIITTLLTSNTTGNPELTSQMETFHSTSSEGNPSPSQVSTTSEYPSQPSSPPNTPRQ

B1: AT40 (antibody, V domains shown)
VH: QVQLVESGGGVVQPGMSHRLSCAASTLIFDRHALHWVRQAPGAGLEWVAILSYDGTTDYYADSVKGRFTVSRDTSKNTVFLQMNGLRPQDTAVYYCARGRALDDFADYGGYYFDYWGQGILVTVSS
VL: DIQMTQSPSSVSASVGDKVTITCRASQGISTWLAWYQQKPGKAPALLIYSASRLQSGVPSRFSGSGSGTDFTLTISSLQPEDYATYYCQQANTFPFTFGPGTKVDIKR
B2: AT49 (antibody, V domains shown)
VH: QVLLVQSGAEIKKPGSSVKISCKASGGTFSSLALNWVRQAPGQGLQWMGGIIPLFGTQNYAQKFQGRVTITADESTSTAYMELSGLRPEDTAVYYCALFLWFGDQTSDDGFDVWGQGTVVTVSS
VL: DIVMTQSPLSLTVTPGEPASISCRSSQSLLHGNGYKYLHWYLQKPGQSPQLLIYLGSNRASGVPARFSGSGSDTDFTLKISTVETEDVGVYYCMQALQSPTFGQGTKVEIKR
B3: AT42 (antibody, V domains shown)
VH: QVQLQESGPGLVQPSETLSLTCTVSGDSITSNVYYWGWIRQPPGKGLEWIGSIFHSGITHYTPSLNSRVTISVDTSKNQFSLRLSSATAADTAVYYCARHWAGLYFDSWGQGALVAVSS
VL: EIVLTQSPGTLSLSPGERATLSCRASQTVSSSHLAWYQQKPGQAPRLLIHGSSSRATGIPERFSGSGSGPDFTLTISRLKPEDFAVYYCQYYGDSPGSFGEGTKVEIKR
B4: AT32 (antibody, V domains shown)
VH: QVQLVQSGAEMKKPGASVKVSCQVAGYTLTELSIHWVRQTPGNGLEWMGGFEPEDGEYIYPQKSQGRVTMTEDTSTGTAYMELRSLRSDDTAVYYCAAEARYCDNSRCSPNFDHWGQGTLVAVSS
VL: DIVMTQSPDSLAVSLGERATFSCKSSQSVLYDSNNKNYLAWYQQRPGQPPKLLIYWASTRESGVPDRFSGSGSGTDFTLTISSLQPEDVAVYYCQQYYDPLITFGQGTRLEIKR
B5: AT34 (antibody, V domains shown)
VH: QVQLMESGGGVVQPGKSLRLSCAASGFTFSHYGMHWVRQAPGKGLEWVAVISYDGDKKYYADSVKGRFTISRDNSKNTLHLHMNSLRHEDTAVYFCASQGAKGGHELSFYCALDVWGQGTTVAVSS
VL: DIQMTQSPSTLSASVGDRVTITCRASQGIGSWLAWYQQKPGKAPKLLIYNASGLESGVPSGFSGSGSGTEFTLTISSLQPDDSATYYCQQYNSHTWTFGQGTKVEFKR
B6: AT44 (antibody, V domains shown)
VH: QVQLQASGPGLVKPSETLSLTCNVSGYSVSSGHYWAWVRQSPGKGLEWIGGIHHSGSTYTNPPLKSRVSISIDTSKNQFSLRLTSVTAADTAVYFCARDLYDLSTGPFWFDPWGQGTLVTVSS
VL: EIVMTQSPATLSVSPGERVTLSCRASQSVSTKVVWYQQKFGQAPRLLIYGASTRATGIPVRFSGSGSGTEFTLTISSLQSEDLAVYFCQQYNKWPMYTFGQGTKLEIKR
B7: AT46 (antibody, V domains shown)
VH: EVQLVESGGGLVQPGGSLRLSCAASGFTFSRYVMSWVRQAPGRGLEWVSSITGSGATTYYADSVKGRFTISRDNSKNTVYLQMNRLRAEDTAIYYCANCGRAGQIFDDWGQGTLVTVSS
VL: QPVLTQSPSASASLGASVKLTCTLSSGHRNYAIAWHQQRPEKGPRYLMKIYTNGSHYPGDGTPDRFSGSSSGAERYLTISSLQSEDEADYYCQTWGAGIWVFGGGTKLTVLG
B8: AT36 (antibody, V domains shown)
VH: QVQVVQSGAEVKKPGASVKVSCKTSGYNFIDHSVSWVRQAPGQGLEWMGWISPYNHRTVYAEKFQGRVTMTTDTSTRTVSMELRRLTSDDTAVYFCARDRVQQGEGNFFDHWGQGTPVTVTS
VL: DIVMTQSPDSLAVSLGERATINCKSSQSLLHSSNNKIYLAWYQQKPGQPPKLLLYWASTRESGVPDRFTGSGSGTDFTLTINSLQAEDVAVYYCQQYYTTHPTFGQGTRLEIKR

Tests used:
[1] = biological target: T1, purified recombinant RSV-Gb protein …; assay: SPR (IBIS MX96), IgG captured on anti-human IgG, RSV Gb injected
[2] = biological target: T2, purified recombinant RSV-Ga protein …; assay: SPR (IBIS MX96), IgG captured on anti-human IgG, RSV Ga injected
[3] = biological target: T3, RSV G protein in denatured and boiled …; assay: western blot, denatured RSV A2 supernatant
[4] = biological target: T4, RSV G protein of RSV A2 (native, on RSV …); assay: FACS, RSV infected cells, anti-huIgG-PE
[5] = biological target: T1, purified recombinant RSV-Gb protein …; assay: SPR (IBIS MX96), IgG captured on anti-human IgG

| Binder | Kd [1] | koff [1] | kon [1] | Kd [2] | koff [2] | kon [2] | binding result [3] | binding result [4] | binding result [5] |
| --- | --- | --- | --- | --- | --- | --- | --- | --- | --- |
| B1 | 0.1 nM | 3e-05 s⁻¹ | 340000 M⁻¹ s⁻¹ | 0.2 nM | 6e-05 s⁻¹ | 350000 M⁻¹ s⁻¹ | – | – | – |
| B2 | 0.5 nM | 5e-05 s⁻¹ | 120000 M⁻¹ s⁻¹ | 0.1 nM | 3e-05 s⁻¹ | 220000 M⁻¹ s⁻¹ | – | – | – |
| B3 | 0.3 nM | 0.0001 s⁻¹ | 400000 M⁻¹ s⁻¹ | 1.3 nM | 0.00076 s⁻¹ | 640000 M⁻¹ s⁻¹ | no binding | – | – |
| B4 | – | – | – | 0.6 nM | 0.00043 s⁻¹ | 750000 M⁻¹ s⁻¹ | – | – | – |
| B5 | – | – | – | – | – | – | – | binds | – |
| B6 | 0.1 nM | 4e-05 s⁻¹ | 340000 M⁻¹ s⁻¹ | 0.1 nM | 3e-05 s⁻¹ | 350000 M⁻¹ s⁻¹ | – | – | – |
| B7 | – | – | – | – | – | – | – | – | no binding |
| B8 | – | – | – | – | – | – | – | binds | – |
